Data as given in US20250381307A1, “RETRO-AAV AND USE IN TREATING NEURODEGENERATIVE DISEASES” (priority 2023, published 2025).
Where a chain is given by its changes, count along the chain named. Names and notes keep the numbering of the source.

Columns and labels:
[1] = test system: striatonigral projection neurons (striatal MSNs); experiment: Retrograde labeling of striatal MSNs after AAV injection into the SNr (EYFP+ cell counting); assay type: in vivo, mice; settings: for Activity Level STR: striatum, numbers of YFP-expressing neurons per animal; for reporter-labeled MSNs by promoter (FIG. 4B): SNr injection, n=3 mice, mean±SEM; for Labeling Efficiency in Striatonigral Pathway: AAV8R capsid mutants, numbers of labeled neurons per animal
Text: (§1) Brain profiles of two epigenetic marks for enhancers and promoters, monomethylation of histone H3 lysine 4 (H3K4me1) and acetylation of histone H3 lysine 27 (H3K27ac) were checked and approximately 2 kilobase-long sequences around the transcriptional start site (TSS) that have high levels of H3K4me1 and/or H3K27ac were identified in mouse brain. Homologous sequences at equivalent positions of the human genome were then cloned onto an AAV backbone, and the activity of the homologous sequences in directing reporter expression was tested in mice after injections of AAVs into the SNr (FIG. 3A-C, TABLE 3).
(§2) Mice were anesthetized with sodium pentobarbital (Nembutal; 80 mg/kg, i.p.), and then placed into a stereotaxic device (KOPF). Eye cream was applied on both corneas to avoid dehydration. The skull above the targeted areas was thinned with a dental drill and carefully removed. Injections were conducted with a 10 μL syringe connected to a 33-Gauge needle (Neuros; Hamilton), using a microsyringe pump (Legato 130, KD Scientific). A total volume of 200 nL virus was injected into the SNr at a speed of 20 nL/min. The coordinates for the SNr were 3.4 mm posterior, 1.3 mm lateral, 4.8 mm ventral to the bregma.
(§3) Images were acquired using a confocal microscope (Carl Zeiss, LSM880) and an Axiolmager.Z1 microscope with apotome (Carl Zeiss). Brain structures were identified microscopically and in digital photos using a mouse brain atlas. To analyze the number of EYFP+ cells in the striatum, slices from rostral to caudal striatum were used. Every sixth section was analyzed, and numbers of EYFP+ cells were multiplied by six to acquire the approximate total number and mean number of cells per animal. Images were processed using ImageJ (NIH, USA), and final quantifications were independently performed manually by two blinded experimenters.

substantia nigra = experiment: Promoter activity level in substantia nigra after AAV injection into the SNr; assay type: in vivo, mice; settings: numbers of YFP-expressing neurons per animal
Text: as §1, §2, §3

With “R9P1: tested promoter from gene RGS9, 2152 bp (SEQ ID NO: 47)” the “Activity Level STR” value [1] was “+++ (10k-25k)” and the “Activity Level SN” value (substantia nigra) was “+ (<5k)”.

“G88P2: 2259-bp promoter from the gene GPR88 (SEQ ID NO: 44)” was tested, and the “reporter-labeled MSNs by promoter (FIG. 4B)” value [1] was 36290±3705, the “Activity Level STR” value [1] was “++++ (>25k)” and the “Activity Level SN” value (substantia nigra) was “+ (<5k)”.

B1: G88P3: 1395-bp shortened derivative of G88P2 promoter (SEQ ID NO: 45) (nucleic acid, listed as Homo sapiens)
DNA: TCTAGATGTACCACTGACATCTGCTTTAAATCTTTTGCCCATTTCATTTTTACCCTCTAACCATTTCATTACTAAAACACAAAACAAACTCCGGAAAGGAGTTTGTTGATGAGAAAACACTGAAAGTACGATTTAAATTGAGGAATGGAGATTTTCTGTGGATAATTGTCTATGTTCCACTTTACCAAAGAAAAATGAATTTCAAGTAGTGCATAAAGTAATTCTCGTTAAAAAATGTGGGAATAAAGAGATCAGTCCTGGGTACTGGGAATATATTTATCTCACAGAAAAATCTTGCCCACAAAATGCATCAGACTGAGATGAAATACTCTAGGGTATATTAAATTTTATTCTAATATTGAAGGGAGGGAAAAAAAGGACGGAAAGAAAAATGAAACAGGATGAAAAATAAGGTGATTGGGAGAGAGAAAAGACAGAGAAACTTGTTAACGACAGGACTTTCTGAGCAAGATATTTTTCTTCCTTTTACAAGTTGGAAGCTATTGAATAATTCATGCCAAGCGTGGAAAGGCTGTCTTTTCCCTGGATGATGTATAACTAAGCAGGAGAGAGCTTCGAGTGGGTTCACCACATCAGCCACCACTCCTGCTTCTGAGCACAGGGTGCTCTCCTCTTGAGCTCAGCTTCTGCTTTTGCAGCCAAGCATTCTTGCTGCTGCTGCCTGCCTGCCCACCCGCCTGGGCTTGCAGCCCGCCACTTTACTTTCTCCAGCCCTGATACCAGCTGAGAAGTCTCCCTGCAGCTGCTAGTTCCTGCCCAGGACCATGTGTGTGGATGCTGCTTGGGAGAAGCGGGCACTTGCTCCTGGCACTGATCCCAGCTGAGTTTCTCCTGTTGATTTCTGGACCACTGATGCTGTTGCTGAGGAGGTATTTCCCGGCATCCCTCCCCCTGAGACACCGGCTAAGGACCAGCCTAAACGCAAGGTAACCTTCACCTCTTTCCCATGGGATTTTCCCCAGCTGGGATATCTCTGCTTTCTCCTGGAACTAGGTCCTCCAGCTGGCAACATATCTCTCTCTCTCTCTCTCTCTCTCTCTCTCTCTCTCTGTGTGTGTGTGTGTGTGTTGGGGGAGAAGAGGAGACTGTTTTAGGTATTGCTCTGTCCTAGGGCTTCCCCGATACCTGCTGAATCCAATGCAAAGTGGCCTTTCCCCTGGCTCTGGAGACATTTCCGAGGCAGGCACCTGTCATTTGCCACCCCCGTCCTCCTCCTCGAGCTCCCTTTCTCCCCCTCCCCCAGCCCATTATTCTGCTTCAGCCTTTTGTGTCAGTGGCAGAGGGCTGAAGGGATGTCTTTGCCCTTCTGGCAGGCAGGACAGTGTCAGGATGGACCGCGCTGCCAGAAGCCGACGCTAGCGAGGGAGGTGTGAA
In the case of B1, the “reporter-labeled MSNs by promoter (FIG. 4B)” value [1] is reported as 37026±6646, the “Activity Level STR” value [1] is reported as “++++ (>25k)” and the “labeled MSNs per mouse” value ([1]; viruses expressing EYFP, injection into the SNr (FIG. 4B)) is reported as 3.7±0.66 ×104 MSNs per mouse. The “Activity Level SN” value (substantia nigra) was “+ (<5k)”.

B2: AAV8R9: AAV8R capsid mutant V125I + F536Y (SEQ ID NO: 10) (protein)
chain: MAADGYLPDWLEDNLSEGIREWWALKPGAPKPKANQQKQDDGRGLVLPGYKYLGPFNGLDKGEPVNAADAAALEHDKAYDQQLQAGDNPYLRYNHADAEFQERLQEDTSFGGNLGRAVFQAKKRILEPLGLVEEGAKTAPGKKRPVEPSPQRSPDSSTGIGKKGQQPARKRLNFGQTGDSESVPDPQPLGEPPAAPSGVGPNTMAAGGGAPMADNNEGADGVGSSSGNWHCDSTWLGDRVITTSTRTWALPTYNNHLYKQISNGTSGGATNDNTYFGYSTPWGYFDFNRFHCHFSPRDWQRLINNNWGFRPKRLSFKLFNIQVKEVTQNEGTKTIANNLTSTIQVFTDSEYQLPYVLGSAHQGCLPPFPADVFMIPQYGYLTLNDGSQAVGRSSFYCLEYFPSQMLRTGNNFQFTYTFEDVPFHSSYAHSQSLDRLMNPLIDQYLYYLSRTQTTGGTANTQTLGFSQGGPNTMANQAKNWLPGPCYRQQRVSTTTGQNNNSNFAWTAGTKYHLNGRNSLANPGIAMATHKDDEERYFPSNGILIFGKQNAARDNADYSDVMLTSEEEIKTTNPVATEEYGIVADNLQRGNLADQDYTKTARQAATADVNSQGALPGMVWQNRDVYLQGPIWAKIPHTDGNFHPSPLMGGFGLKHPPPQILIKNTPVPADPPTTFNQSKLNSFITQYSTGQVSVEIEWELQKENSKRWNPEIQYTSNYYKSINVDFAVNTEGVYSEPRPIGTRYLTRNL
With B2 the “Labeling Efficiency in Striatonigral Pathway” value (“Labeling Efficiency” below) [1] was “+ (<5k)”.

B3: AAV8R10: AAV8R capsid mutant V125I + A606S (SEQ ID NO: 11) (protein)
chain: B2 chain with Y536F, A606S
In the case of B3, the “Labeling Efficiency” value [1] is reported as “+ (<5k)”.

B4: AAV8R11: AAV8R capsid mutant V125I + T495A (SEQ ID NO: 12) (protein)
chain: B2 chain with T495A, Y536F
With B4 the “Labeling Efficiency” value [1] was “+ (<5k)”.

B5: AAV8R13: AAV8R capsid mutant V125I + F536Y + T495A (SEQ ID NO: 14) (protein)
chain: B2 chain with T495A
B5 was tested, and the “Labeling Efficiency” value [1] was “++ (5k-10k)”.

B6: AAV8R14: AAV8R capsid mutant V125I + A606S + T495A (SEQ ID NO: 15) (protein)
chain: B2 chain with T495A, Y536F, A606S
For B6, the “Labeling Efficiency” value [1] was “++ (5k-10k)”.

B7: AAV8R1: AAV8R capsid mutant V183E (SEQ ID NO: 2) (protein)
chain: B2 chain with I125V, V183E, Y536F
In the case of B7, the “Labeling Efficiency” value [1] is reported as “+ (<5k)”.

B8: AAV8R2: AAV8R capsid mutant N411S (SEQ ID NO: 3) (protein)
chain: B2 chain with I125V, N411S, Y536F
In the case of B8, the “Labeling Efficiency” value [1] is reported as “+ (<5k)”.

B9: AAV8R3: AAV8R capsid mutant Y447F (SEQ ID NO: 4) (protein)
chain: B2 chain with I125V, Y447F, Y536F
B9 was tested, and the “Labeling Efficiency” value [1] was “+ (<5k)”.
